Data published in patent CN112250763A (SANYOU BIOPHARMACEUTICALS SHANGHAI CO LTD; SHANGHAI ZJ BIO …, dated 2021).

Target: S蛋白RBD-His(319Arg-532Asn) (SARS-CoV-2, UniProt P0DTC2 319-532)

B1: R16-F10抗体 (antibody, V domains shown)
VH: QVQLVQSGPEVKEPGSSVKVSCKASGGTFDTAAISWVRQAPGQGPEWMGGIIPIFGTANYAQKFQGRVTITADESTSTAYMELSSLRSEDTAVYYCAREHTVAPVYGFDVWGQGTLVTVSS
VL: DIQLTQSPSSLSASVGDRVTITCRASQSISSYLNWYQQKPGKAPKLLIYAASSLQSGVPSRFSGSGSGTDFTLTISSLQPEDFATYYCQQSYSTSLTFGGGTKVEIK
B1 gave an EC50 of 0.05 µg/mL.
